The source of these data is PMC3226441, “Generation of recombinant single-chain antibodies neutralizing the cytolytic activity of vaginolysin, the main virulence factor of Gardnerella vaginalis” (BMC Biotechnology, 2011).

The target of experiment [1] is T1, vaginolysin (VLY), recombinant (Gardnerella vaginalis). The experiment in a line: cell-based or functional assay.
The target of experiment [2] is T1, vaginolysin (VLY), recombinant. The experiment in a line: ELISA; indirect ELISA; recombinant purified VLY (5 μg/ml, 50 mM Na-carbonate pH 9.5) coated on MaxiSorp plates; scFv 50 μg/ml to 20 ng/ml, 1 h at RT; detected by anti-His5 MAb and HRP-labelled anti-mouse IgG; apparent Kd = molar concentration at the mid-point of the titration curve. The settings on record: both partners purified. For orientation: In an ELISA, binding on a coated surface is turned into a signal by an enzyme label.

B1: anti-VLY scFv 9B4 (VL-VH) (scFv, V domains shown)
VH: QVQLEQSGPGLVAPSESLTITCTVSGFSLNSYGVHWVRQPPGKGLEWVGVMWAGGNTSYNSALMSRLSISKDNSKSQVFLKMNSLQTDDTAIYYCARARGAMDYWGQGTSVTVSS
VL: DIVMTQTTSHLSVSLGDRVTIACKASAHINNWLAWYQQKPGNAPSLLIAGATGLETGVPSRFSGSGSGKDFTLSISSLQTEDVATYYCQQYWDTPYTFGGGTKLEIR
notes: also called 9B4-derived scFv (variant VL-VH); source: E. coli BL21(DE3), from inclusion bodies, renatured, purified (Ni-NTA); not shown: His6, N-terminal, kept
With B1, the other in experiment [1] was 37 nM. Also, the Kd in experiment [2] was found to be 11 nM.

B2: anti-VLY scFv 9B4 (VH-VL) (scFv, V domains shown)
VH: B1 VH
VL: B1 VL
notes: also called 9B4-derived scFv (variant VH-VL); source: E. coli BL21(DE3), from inclusion bodies, renatured, purified (Ni-NTA); not shown: His6, N-terminal, kept
For B2, in experiment [1], the other was 51 nM. The Kd in experiment [2] came out at 15 nM.

B3: anti-VLY scFv 23A2 (VL-VH) (scFv, V domains shown)
VH: QVQLEQSGAELVRSGASVKISCKASGYTFPSYNMHWVKQTPGQGLEWIGYIYPGNGVTNYNQKFKGKATLTADTSSSTAYMQISSLTSEDSAVYFCAREEGGNLLWGHFAMDYWGQGTSVTVSS
VL: DIVMTQTTLSLPVSLGDQASISCRSSQSLVHSNGNTYLHWYLQKPGQSPKLLIYKVSNRFSGVPDRFSGSGSGTDFTLKISRVEAEDLGVYFCSQSTHVPPTFGGGTKLEIR
notes: also called 23A2-derived scFv (variant VL-VH); source: E. coli BL21(DE3), from inclusion bodies, renatured, purified (Ni-NTA); not shown: His6, N-terminal, kept
As for B3, the other in experiment [1] worked out at 110 nM. In experiment [2], the Kd worked out at 92 nM.

B4: anti-VLY scFv 23A2 (VH-VL) (scFv, V domains shown)
VH: B3 VH
VL: B3 VL
notes: also called 23A2-derived scFv (variant VH-VL); source: E. coli BL21(DE3), from inclusion bodies, renatured, purified (Ni-NTA); not shown: His6, N-terminal, kept
As to B4, in experiment [1], the other came to 150 nM. The Kd in experiment [2] is 98 nM.
